Measured values published in publication PMC10432269, “Diverse modes of H3K36me3-guided nucleosomal deacetylation by Rpd3S” (Nature, 2023).
No end group written: not given here.

T1: unmodified histone H3 residues 1–10 peptide
T1 construct: Histone H3 residues 1-10, unmodified; also called H3_(1–10); H3un; source: synthetic peptide
T1 peptide: ARTKQTARKS

B1: Rco1 (natural protein, S. cerevisiae, UniProt Q04779 1-684, looked up)
chain: MDTSKKDTTRSPSHSNSSSPSSSSLSSSSSKEKKRPKRLSSQNVNYDLKRRKIITSEGIERSFKNEHSNLAVEDNIPEEEPKELLEKDSKGNIIKLNEPSTISEDSKVSVTGLPLNKGPSEKIKRESLWNYRKNLGGQSNNSEMTLVPSKRFTQVPKNFQDLNRNDLKTFLTENMTEESNIRSTIGWNGDIINRTRDREPESDRDNKKLSNIRTKIILSTNATYDSKSKLFGQNSIKSTSNASEKIFRDKNNSTIDFENEDFCSACNQSGSFLCCDTCPKSFHFLCLDPPIDPNNLPKGDWHCNECKFKIFINNSMATLKKIESNFIKQNNNVKIFAKLLFNIDSHNPKQFQLPNYIKETFPAVKTGSRGQYSDENDKIPLTDRQLFNTSYGQSITKLDSYNPDTHIDSNSGKFLICYKCNQTRLGSWSHPENSRLIMTCDYCQTPWHLDCVPRASFKNLGSKWKCPLHSPTKVYKKIHHCQEDNSVNYKVWKKQRLINKKNQLYYEPLQKIGYQNNGNIQIIPTTSHTDYDFNQDFKITQIDENSIKYDFFDKIYKSKMVQKRKLFQFQESLIDKLVSNGSQNGNSEDNMVKDIASLIYFQVSNNDKSSNNKSASKSNNLRKLWDLKELTNVVVPNELDSIQFNDFSSDEIKHLLYLKKIIESKPKEELLKFLNIENPENQSE
notes: Rco1, S. cerevisiae, full length; residues 107-565 (Rco1-A) and 262-358 (Rco1-B) are modelled in the structure; The complex was captured on strep beads by the Strep-tag of Rco1; the tag was then cleaved with TEV protease before anion exchange and SEC; Two copies (Rco1-A, Rco1-B) stand in the Rpd3S complex; also called Rco1-A; Rco1-B; not shown: Strep-tag, N-terminal, cleaved

Columns and labels:
[1] = target: the molecule itself; assay: cryo-EM structure; free Rpd3S complex, subunits co-expressed in Sf9 and purified together; stabilised by GraFix (glycerol gradient with 0.15% glutaraldehyde); 3.2 Å overall, local maps 2.7 Å and 3.2 Å
[2] = target: T1, unmodified histone H3 residues 1–10 …; assay: ITC; 25 °C, MicroCal PEAQ-ITC; 20 mM Tris 7.5, 50 mM NaCl, 5% glycerol; one set of binding sites model; conditions: both partners purified

Binder | binding result [1] | Kd [2] [µM]
B1 | binds | 
EDFCSACNQSGSFLCCDTCPKSFHFLCLDPPIDPNNLPKGDWHCNECKFK (domain or fragment, cysteine pairing not given here; also: Zn2+ bound) [PHD1 domain of Rco1] |  | ~39
